The source of these data is paper PMC9670587.

For assay [1], the target named is FcγRIIA (UniProt P12318).
Assay [2] has as its target FcγRIIIA (UniProt P08637).
Sequence of UniProt P08637 (P08637 17-254): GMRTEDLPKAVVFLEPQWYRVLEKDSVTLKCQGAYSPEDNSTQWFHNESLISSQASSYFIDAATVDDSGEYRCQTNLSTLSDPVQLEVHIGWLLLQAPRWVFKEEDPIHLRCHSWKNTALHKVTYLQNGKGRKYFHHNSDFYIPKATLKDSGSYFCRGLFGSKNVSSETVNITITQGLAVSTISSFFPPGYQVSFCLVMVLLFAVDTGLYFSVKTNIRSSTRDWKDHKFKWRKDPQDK

Sequence of UniProt P12318 (P12318 34-317): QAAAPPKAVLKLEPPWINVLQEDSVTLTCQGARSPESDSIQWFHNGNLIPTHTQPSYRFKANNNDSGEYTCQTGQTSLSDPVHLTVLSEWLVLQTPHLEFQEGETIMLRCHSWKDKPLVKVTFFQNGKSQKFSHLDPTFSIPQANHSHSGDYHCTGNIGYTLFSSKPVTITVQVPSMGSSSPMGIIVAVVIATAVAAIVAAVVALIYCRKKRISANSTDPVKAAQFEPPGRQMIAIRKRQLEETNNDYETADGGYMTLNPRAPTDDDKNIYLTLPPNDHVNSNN

As to “IMM01, recombinant SIRPα-Fc fusion protein”, the antibody-dependent cellular phagocytosis (ADCP), EC50 in assay [1] and in assay [2] was 0.139 nM each time.
